Measured values: US6566113B1, “Polypeptide having cellobiohydrolase activity” (Takara Shuzo Co., Ltd., priority 1998, dated 2003)

How the values were obtained:
[1] = target: polypeptide of the present invention (cellobiohydrolase, open reading frame PH1171) (Pyrococcus horikoshii, UniProt O58925); assay: Inhibition of pNPC-degrading activity by glucose, cellobiose and various reagents; assay type: biochemical, Pyrococcus horikoshii OT3; settings: for inhibition of pNPC-degrading activity by dithiothreitol: up to 10 mM
[2] = target: Cellobiohydrolase from Thermotoga sp. FjSS-B.1; settings: cellobiohydrolase of Thermotoga sp. FjSS-B.1; read-out: inhibition constant (Ki) for cellobiose; cited from earlier work
[3] = CMC-degrading activity (reducing ends, Park and Johnson method); assay type: biochemical
Description: When cellulose is degraded using a cellulose hydrolase such as endoglucanase or cellobiohydrolase, reducing ends of glucose residues are newly generated. Then, increase in the amount of reducing end in a unit reaction time was measured according to the Park and Johnson method using carboxymethylcellulose (CMC) as a substrate in order to confirm whether or not a polypeptide having an activity of hydrolyzing cellulose which newly generates reducing ends of glucose residues existed in the Escherichia coli extract.
A CMC solution was prepared by dissolving CMC (Sigma) in 100 mM sodium citrate buffer (pH 5.0) at a concentration of 1%. […] Absorbance at 690 nm was then measured. The amount of reducing end was determined as the amount of corresponding glucose based on a calibration curve prepared using glucose at a known concentration. […]
50 μl of a 50-fold dilution of the polypeptide solution of the present invention with water, 25 μl of a 2% CMC aqueous solution and 25 μl of one of the above-mentioned buffers were mixed together. […] The amount of reducing sugar contained in a supernatant obtained by centrifuging the reaction mixture was measured according to the Park and Johnson method, and the CMC-degrading activity was calculated. […]

[4] = pH and heat stability: remaining CMC-degrading / cellobiohydrolase activity after heating; assay type: biochemical
Description: 25 μl of the polypeptide solution of the present invention and 25 μl of one of the buffers prepared in Example 3-(1) were mixed together. The mixture was heated at 95° C. for 10 minutes. 50 μl of 1% CMC solution in 0.1 M MES-NaOH buffer (pH 6.0) was added to 50 μl of a 50-fold dilution of the heated mixture with water. The mixture was reacted at 98° C. for 20 minutes. The amount of reducing sugar contained in a supernatant obtained by centrifuging the reaction mixture was measured according to the Park and Johnson method, and the CMC-degrading activity was calculated.
CMC was dissolved in 0.1 M MES-NaOH buffer (pH 6.0) to prepare a 1% CMC solution (pH 6.0). 50 μl of the MES buffer was added to 50 μl of the polypeptide solution of the present invention. The mixture was heated at 95° C. for 0, 1, 5 or 24 hours. 50 μl of the 1% CMC solution was added to 50 μl of a 50-, 200- or 500-fold dilution of a supernatant obtained by centrifuging the heated mixture with the MES buffer. The mixture was reacted at 98° C. for 20 minutes. The amount of reducing sugar contained in the reaction mixture was measured according to the Park and Johnson method to determine the CMC-degrading activity.

[5] = pNPC-degrading activity on synthetic substrate; assay type: biochemical; settings: 5 mM pNPC, 98° C., 20 minutes, pH 6.0
Description: 50 μl of 10 mM pNPC solution in 0.1 M MES-NaOH buffer (pH 6.0) was added to 50 μl of the polypeptide solution of the present invention or a 2-, 5- 10- or 20-fold dilution thereof with 0.1 M MES-NaOH buffer (pH 6.0). The mixture was reacted at 98° C. for 20 minutes. Absorbance at 405 nm of a supernatant obtained by centrifugation was measured to determine the pNPC-degrading activity based on the amount of released p-nitrophenol (pNP).

[6] = 4-MUC-degrading activity, specific activity of purified polypeptide; assay type: biochemical; settings: 98° C., pH 6.0, 20 minutes
Description: A supernatant obtained by centrifuging the heated supernatant was subjected to anion exchange chromatography using HiTrap Q column (Pharmacia). The sample was applied to two 5 ml HiTrap Q columns connected in series. Elution was carried out using a linear gradient in 20 minutes from 50 mM MES-NaOH buffer (pH 6.0) to the same buffer containing 200 mM NaCl at a flow rate of 2 ml/minute. 50 μl of 6 mM 4-MUC solution in 100 mM MES-NaOH buffer (pH 6.0) was added to 50 μl of one of the serial dilutions of the respective fractions. The mixture was reacted at 98° C. for 20 minutes. Fluorescence value was measured at an excitation wavelength of 355 nm and an emission wavelength of 460 nm. The 4-MUC-degrading activity was calculated based on the amount of released 4-MU.
2 ml of the active fraction from the hydrophobic column chromatography was desalted by ultrafiltration, lyophilized and then hydrolyzed in the presence of gas-phase HCl at 135° C. for 3 hours. The hydrolysate was dissolved in 100 μl of water. […] The polypeptide corresponding to 60 mU of the 4-MUC-degrading activity was subjected to the amino acid analysis. Thus, the specific activity was determined to be 17.0 U/mg.

[7] = Identification of hydrolysis products by silica gel thin-layer chromatography; assay type: biochemical
Description: The activity of hydrolyzing cellulose of the expressed polypeptide was identified as follows. Specifically, the expressed polypeptide solution was allowed to act on various substrates. Products were then identified on thin-layer chromatography.
75 μl of the expressed polypeptide solution was added to 75 μl of the phosphoric acid-swollen cellulose. The mixture was reacted at 98° C. for 8 hours. 60 μl of acetonitrile was added to the equal volume of the reaction mixture and mixed. A supernatant obtained by centrifugation was evaporated under reduced pressure to dryness. The residue was dissolved in 10 μl of water. 2 μl of the solution was subjected to silica gel thin-layer chromatography. Two rounds of development were carried out using silica gel 60F254 (Merck) as a thin-layer plate and ethanol:butanol:water=5:5:1 as a solvent for development. Orcinol-sulfuric acid reagent was sprayed onto the thin-layer plate after development and the plate was heated using a hot plate to observe the spots. […]
Reactions were carried out as described above using oligosaccharides as substrates except that the dilution rate of the expressed polypeptide solution was 10 and the reaction time was 2 hours. Supernatants obtained by centrifuging the reaction mixtures were analyzed on silica gel thin-layer chromatography as described above.

## O=C(O)CN(CCN(CC(=O)O)CC(=O)O)CC(=O)O [EDTA, ethylenediaminetetraacetic acid]
[1]; pH 6, read-out: inhibition of pNPC-degrading activity
  inhibition at 1000 µM: ~50%
[1]; reagent at 1 mM, 5 mM pNPC, 98° C., pH 6.0
  inhibition of pNPC-degrading activity: about 50%

## O[C@H](CS)[C@H](O)CS (racemic) [DTT, dithiothreitol]
[1]; 5 mM pNPC, 98° C., pH 6.0
  inhibition of pNPC-degrading activity by dithiothreitol: not inhibited
[1]; 5 mM pNPC, 98° C., pH 6.0, listed as dithiothreitol
  inhibition of pNPC-degrading activity by dithiothreitol: Almost no inhibition

## O=C[C@H](O)[C@@H](O)[C@H](O[C@@H]1O[C@H](CO)[C@@H](O)[C@H](O)[C@H]1O)[C@H](O)CO [cellobiose]
[2]
  Ki: 200 µM

B1: polypeptide of the present invention: polypeptide of SEQ ID NO:1 with thermostable cellobiohydrolase activity, expressed from open reading frame PH1171 of Pyrococcus horikoshii OT3 (protein)
chain: ENTTYQTPTGIYYEVRGDTIYMINVTSGEETPIHLFGVNWFGFETPNHVVHGLWKRNWEDMLLQIKSLGFNAIRLPFCTESVKPGTQPIGIDYSKNPDLRGLDSLQIMEKIIKKAGDLGIFVLLDYHRIGCTHIEPLWYTEDFSEEDFINTWIEVAKRFGKYWNVIGADLKNEPHSVTSPPAAYTDGTGATWGMGNPATDWNLAAERIGKAILKVAPHWLIFVEGTQFTNPKTDSSYKWGYNAWWGGNLMAVKDYPVNLPRNKLVYSPHVYGPDVYNQPYFGPAKGFPDNLPDIWYHHFGYVKLELGYSVVIGEFGGKYGHGGDPRDVIWQNKLVDWMIENKFCDFFYWSWNPDSGDTGGILQDDWTTIWEDKYNNLKRLMDSCSKSSSSTQSVIRSTTPTKSNTSKKICGPAILIILAVFSLLLRRAPR
modifications: Pyrococcus horikoshii OT3
[3]; 2.5 M NaCl
  activity relative to that in the presence of 0.5 M NaCl: about 60%
[3]; absence of NaCl
  activity relative to that in the presence of 0.5 M NaCl: about 80%
[4]; 95° C. for 10 minutes at pH 5 to 7
  activity after heating in the absence of a substrate: not decreased
[4]; 95° C. for 24 hours, pH 6.0
  retained CMC-degrading activity after heating: about 90%
[4]; 95° C., pH 6, heating for additional 24 hours
  remaining activity after heating: About 80%
[4]; in the presence of a substrate at pH 6 at 95° C. for 5 hours
  retained activity after heating: about 90%
[4]; treatment at 75° C. for 20 minutes
  retained cellobiohydrolase activity after heat treatment: ≥ 80%
[4]; treatment at 95° C. for 10 minutes
  retained cellobiohydrolase activity after heat treatment: ≥ 80%
[4]; treatment at 95° C. for 5 hours
  retained cellobiohydrolase activity after heat treatment: ≥ 80%
[5]
  pNPC-degrading activity versus amount of polypeptide: increased depending on the concentration
[6]
  specific activity (4-MUC-degrading activity): 17.0 U/mg
[7]; 98° C. for 8 hours
  product from phosphoric acid-swollen cellulose (TLC): generation of cellobiose
[7]; cellotriose, cellotetraose, cellopentaose, 10-fold dilution, 98° C., 2 hours, pH 6.0
  product from cellooligosaccharides (TLC): principal degradation product was cellobiose
